Series [1] has as its target NR5A2 D159A D159A (Homo sapiens) (UniProt O00482). The series can be described thus: smFRET. Particulars: EMSA: 20 mM Tris-HCl pH 7.5, 120 mM NaCl, 1 mM MgCl2, 10 uM ZnCl2, 1 mM DTT, 100 ug/ml BSA, room temperature, 30 min, 50 nM DNA or nucleosome. For orientation: Mobility shift assays separate free from complexed probe on a gel.
Series [2] addresses NR5A2 wild type (Homo sapiens) (UniProt O00482). Kind of series: smFRET. Particulars: EMSA: 20 mM Tris-HCl pH 7.5, 120 mM NaCl, 1 mM MgCl2, 10 uM ZnCl2, 1 mM DTT, 100 ug/ml BSA, room temperature, 30 min, 50 nM DNA or nucleosome.
The target of series [3] is nucleosome reconstituted with Alexa-Fluor-647-labeled H2A-K119C–H2B, H3.3–H4 and DNA carrying the Nr5a2 motif (mouse) (UniProt P10853). Kind of series: FRET or BRET; single-molecule FRET (TIRF): nucleosomes held on the surface by biotin-streptavidin, Cy3 on the 5' end of 601 DNA next to the motif at SHL +5.5, Alexa Fluor 647 on H2A-K119C; NR5A2 flowed in at 0.1 or 0.5 uM (quantified at 0.1 uM); 50 mM Tris pH 7.6, 120 mM NaCl, 1 mM MgCl2, 10 uM ZnCl2, 10% glycerol, 1 mM DTT, 100 ug/ml BSA; 22.5 C; low-FRET state taken as NR5A2 dwell time, single exponential fits, three replicates. (In BRET a luciferase serves as donor, and the signal depends on an acceptor being close.)

For the substance “601 nucleosome SHL +5.5 for smFRET, with linker DNA”, the binding signal amounted to 16.4 s in series [1]; 9.19 s in series [1] (mean lifetime of low-FRET (unwrapped) state, less stable than wild type); 20.3 s in series [2]; 16.4 s in series [2] (mean lifetime of low-FRET (unwrapped) state).

In series [3], “human NR5A2 (from UniProt O00482 1-541) (natural protein)” displayed an average lifetime of the high-FRET (wrapped, unbound) state of 20.3 s and a duration of the low-FRET (unwrapped) state, taken as NR5A2 dwell time of 16.4 s.

With “human NR5A2-D159A (from UniProt O00482 1-541) (natural protein)”, in series [3], the average lifetime of the high-FRET (wrapped, unbound) state was 16.4 s and the duration of the low-FRET (unwrapped) state, taken as NR5A2 dwell time was 9.19 s.
